Data from patent publication US20250092112A1 (HEMOGENYX PHARMACEUTICALS, published 2025).

Target: T1, SARS-CoV-2 Spike protein (wild-type), biotinylated (MyBioSource) (SARS-CoV-2, UniProt P0DTC2 16-1213)
T1 construct: also called WT SARS-CoV-2 Spike; wild-type Spike
Assay: binding of spike to ACE2-fragment constructs; assay not described

B1: CAR-based construct 2: CD8 signal peptide+ACE2 (19-605)+CD8 hinge+CD8 TM domain+CD3ζ intracellular domain (receptor)
chain: not shown
notes: domain: CD8 hinge;domain: CD8 TM domain;domain: CD3ζ intracellular domain
- binding result: no binding

B2: CAR-based construct 1: CD8 signal peptide+ACE2 (19-358)+CD8 hinge+CD8 TM domain+CD3ζ intracellular domain (receptor)
chain: not shown
notes: as for B1
- binding result: no binding
